# According to article PMC7335806:
# B1: Frizzled-6 (Fzd6): N38A, N352A (protein)
# parent chain: MERSPFLLACILLPLVRGHSLFTCEPITVPRCMKMTYNMTFFPNLMGHYDQGIAAVEMGHFLHLANLECSPNIEMFLCQAFIPTCTEQIHVVLPCRKLCEKIVSDCKKLMDTFGIRWPEELECNRLPHCDDTVPVTSHPHTELSGPQKKSDQVPRDIGFWCPKHLRTSGDQGYRFLGIEQCAPPCPNMYFKSDELDFAKSFIGIVSIFCLCATLFTFLTFLIDVRRFRYPERPIIYYSVCYSIVSLMYFVGFLLGNSTACNKADEKLELGDTVVLGSKNKACSVVFMFLYFFTMAGTVWWVILTITWFLAAGRKWSCEAIEQKAVWFHAVAWGAPGFLTVMLLAMNKVEGDNISGVCFVGLYDLDASRYFVLLPLCLCVFVGLSLLLAGIISLNHVRQVIQHDGRNQEKLKKFMIRIGVFSGLYLVPLVTLLGCYVYELVNRITWEMTWFSDHCHQYRIPCPYQANPKARPELALFMIKYLMTLIVGISAVFWVGSKKTCTEWAGFFKRNRKRDPISESRRVLQESCEFFLKHNSKVKHKKKHGAPGPHRLKVISKSMGTSTGATTNHGTSAMAIADHDYLGQETSTEVHTSPEASVKEGRADRANTPSAKDRDCGESAGPSSKLSGNRNGRESRAGGLKERSNGSEGAPSEGRVSPKSSVPETGLIDCSTSQAASSPEPTSLKGSTSLPVHSASRARKEQGAGSHSDA
# Key:
# [1] = in vitro vesicle formation assay, immunoblot; conditions: glycan lost; control: Fzd6WT
# [2] = immunofluorescence, surface localisation in COS7 cells; conditions: glycan lost; control: HA-Fzd6wt
protein,measurement,setting,value
B1,localisation_or_trafficking,[1],decreases
same,localisation_or_trafficking,[2],decreases
